Results published in PMC6365180 (Structure (London, England : 1993), 2018).

Biological target: TATA box-binding protein (TBP) (UniProt P20226 1-339)
Assay: SPR

TATA box-binding protein (TBP), sequence (P20226 whole entry): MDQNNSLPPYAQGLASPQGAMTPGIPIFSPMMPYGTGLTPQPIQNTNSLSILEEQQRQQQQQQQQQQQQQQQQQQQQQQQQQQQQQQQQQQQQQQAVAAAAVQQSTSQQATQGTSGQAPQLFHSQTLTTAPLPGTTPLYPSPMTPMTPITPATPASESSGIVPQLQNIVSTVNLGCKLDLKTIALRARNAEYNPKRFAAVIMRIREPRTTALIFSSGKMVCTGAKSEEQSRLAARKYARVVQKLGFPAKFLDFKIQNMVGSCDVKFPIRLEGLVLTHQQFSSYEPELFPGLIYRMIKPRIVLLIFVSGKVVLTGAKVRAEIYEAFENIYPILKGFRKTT

B1: N-terminal transactivation domain (NTD) of human estrogen receptor alpha, wild type (SNA-M1-Y184) (domain or fragment)
chain: SNAMTMTLHTKASGMALLHQIQGNELEPLNRPQLKIPLERPLGEVYLDSSKPAVYNYPEGAAYEFNAAAAANAQVYGQTGLPYGPGSEAAAFGSNGLGGFPPLNSVSPSPLMLLHPPPQLSPFLQPHGQQVPYYLENEPSGYTVREAGPPAFYRPNSDNRRQGGRERLASTNDKGSMAMESAKETRY
- Kd: 53 ± 12 µM

B2: N-terminal transactivation domain (NTD) of human estrogen receptor alpha, S118D mutant (domain or fragment)
chain: SNAMTMTLHTKASGMALLHQIQGNELEPLNRPQLKIPLERPLGEVYLDSSKPAVYNYPEGAAYEFNAAAAANAQVYGQTGLPYGPGSEAAAFGSNGLGGFPPLNSVSPSPLMLLHPPPQLDPFLQPHGQQVPYYLENEPSGYTVREAGPPAFYRPNSDNRRQGGRERLASTNDKGSMAMESAKETRY
- Kd: 3.9 ± 0.4 µM
